Results on 3 molecules are retold here after article doi:10.1101/2022.12.09.519731 (bioRxiv, 2022).

Where “and” joins values, the source holds several entries; their conditions need not be identical. Equal entries are not always repeated.

As a reminder, the stoichiometry N is the number of molecules, sites or subunits per partner or assembly.

The target of assay [1] is MalE-MglC (Myxococcus xanthus). The experiment in a line: mass photometry.
Assay [2] concerns the target MalE-RomR (Myxococcus xanthus). The experiment in a line: mass photometry.
The target of the next assay is T1, MglA-His6 (Myxococcus xanthus, UniProt Q1DB04 1-195).
T1 sequence: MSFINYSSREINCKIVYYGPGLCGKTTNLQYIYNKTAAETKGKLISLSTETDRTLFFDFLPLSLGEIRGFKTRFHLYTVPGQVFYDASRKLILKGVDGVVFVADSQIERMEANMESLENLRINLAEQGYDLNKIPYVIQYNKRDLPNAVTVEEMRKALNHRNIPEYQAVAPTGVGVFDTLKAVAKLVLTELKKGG
The assay can be described thus: pull-down.

In turn, MalE-MglC (natural protein) yielded a stoichiometry N in assay [1] of 2. In assay [1], MalE-RomR (natural protein) returned a stoichiometry N (RomR:MglC (2:2)) of 1 and a stoichiometry N (RomR:MglC (3:2)) of 1.5. Moreover, the stoichiometry N in assay [2] was 3 and 2.

B1: His6-MglB (natural protein, Myxococcus xanthus)
chain: MGTQLVMYEEEFTKINAVCDRLTKDANAKVVFLVDKNGQLISSAGQTQNIDTTSLASLTAGNVAAMGGLAKLIGENEFPNQFHEGAKDSLYMTIVGSRVVLVVIFDNRTSLGLVRLRIKKASDELTKIFESLVKKTDSPGAGSPFAEISDDDIDNLFSE
On to B1, for which, in the assay with MglA-His6, the binding result was “binds”.
